From publication PMC4140853 (PLoS Pathogens, 2014)
Positions count from the first letter of the chain named. In names and notes the source's numbering stands.

B1: EBV gp42 I159C (C114S/I159C), reduced with TCEP and alkylated with iodoacetamide (IAA) (natural protein)
chain: GGGRVAAAAITWVPKPNVEVWPVDPPPPVNFNKTAEQEYGDKEVKLPHWTPTLHTFQVPQNYTKANCTYCNTREYTFSYKGSCFYFTKKKHTWNGCFQACAELYPCTYFYGPTPDILPVVTRNLNACESLWVGVYRVGEGNWTSLDGGTFKVYQIFGSHCTYVSKFSTVPVSHHECSFLKPCLCVSQRSNS
modifications: introduced cysteine 159 reduced with TCEP and alkylated with iodoacetamide (IAA)
B2: EBV gp42 C114S single mutant, soluble (residues 33-223) (natural protein)
chain: B1 chain with C127I
notes: source: High Five insect cells (baculovirus), secreted, purified (Talon or Ni-NTA, Superdex 200)
B3: EBV gp42 C114S/I159C double mutant (referred to as I159C), soluble (residues 33-223) (natural protein)
chain: B1 chain
notes: as for B2
B4: EBV gp42 wild type, soluble (residues 33-223) (natural protein)
chain: B1 chain with S82C, C127I
notes: also called gp42 w.t; wt gp42; source: High Five insect cells (baculovirus), secreted, purified (Talon or Ni-NTA, Superdex 200)

How the values were obtained:
[1] = molecular target: HLA-DQ2 (A1*0501/B1*0201) with the CLIP1 peptide covalently linked to the beta chain, soluble, Fos-Jun leucine zipper; test: BLI; Octet RED96; site-specifically biotinylated HLA-DQ2 (CLIP1) immobilised on streptavidin (SA) tips; analyte gp42 or preformed gHgL/gp42 complex; equilibrium (steady state) analysis of the same data
[2] = molecular target: HLA-DQ2 (A1*0501/B1*0201) with the CLIP1 peptide covalently linked to the beta chain, soluble, Fos-Jun leucine zipper; test: BLI
[3] = molecular target: T1, EBV gHgL (soluble gH residues 18-679 / gL residues 24-137 heterodimer) (Epstein-Barr virus, UniProt P03231;P03212); test: cell-based or functional assay
[4] = molecular target: T1, EBV gHgL (soluble gH residues 18-679 / …); test: BLI; Octet RED96; biotinylated gHgL immobilised on streptavidin (SA) tips, soluble gp42 as analyte; equilibrium analysis of the same data; details: both partners purified
[5] = molecular target: T1, EBV gHgL (soluble gH residues 18-679 / …); test: BLI; details: both partners purified
[6] = molecular target: T1, EBV gHgL (soluble gH residues 18-679 / …); test: SEC; Superdex 200 gel filtration of purified proteins and their mixtures; 20 mM Tris, 150 mM NaCl, pH 7.4; peak components verified by SDS-PAGE (data not shown); details: both partners purified
[7] = molecular target: T1, EBV gHgL (soluble gH residues 18-679 / …); test: BLI; details: both partners purified; remark: listed apart in the source

Molecule | Kd [1] | KD1 (2:1 heterogeneous ligand fit, primary component) [2] | KD2 (2:1 heterogeneous ligand fit, secondary component) [2] | Kd [4] | Kd [5] | koff [5] | kon [5] | further results
EBV gp42 C114S/I159C double mutant (referred to as I159C), soluble (residues 33-223) (from UniProt P03205 33-223) (natural protein) | 29 nM | 59 nM | 1.25 nM | – | – | – | – | –
EBV gp42 C114S single mutant, soluble (residues 33-223) (from UniProt P03205 33-223) (natural protein) | 97 nM | 88.8 nM | 3.45 nM | – | – | – | – | –
B1 | – | – | – | – | – | – | – | virus-free cell-cell fusion (luciferase) of CHO cells expressing gB and gHgL with Daudi B cells, triggered by 0.1 or 1.0 µg soluble gp42 protein; activity relative to wt gp42 [3]: < 10 % of wild type
B2 | – | – | – | 6.3 nM | 1.29 nM | 0.000529 s⁻¹ | 409000 M⁻¹ s⁻¹ | –
B3 | – | – | – | 13 nM | 0.77 nM | 0.000295 s⁻¹ | 381000 M⁻¹ s⁻¹ | –
B4 | – | – | – | 4.1 nM | 1.41 nM | – | – | stoichiometry N [6]: 1 gp42 per gHgL; t1/2 for dissociation [7]: ~30 min
